The numbers were not newly measured in article PMC4097889, which cites them from elsewhere.

In data set [1] the target is RXRα LBD (Homo sapiens) (UniProt P19793). As to the kind of experiment: ITC. A general note: ITC needs no label: the signal is the heat of the interaction.
Data set [2] shares this target. As to the kind of experiment: circular dichroism. Background: CD spectra are sensitive to the conformation of chiral molecules.

UniProt P19793, sequence (P19793 227-458): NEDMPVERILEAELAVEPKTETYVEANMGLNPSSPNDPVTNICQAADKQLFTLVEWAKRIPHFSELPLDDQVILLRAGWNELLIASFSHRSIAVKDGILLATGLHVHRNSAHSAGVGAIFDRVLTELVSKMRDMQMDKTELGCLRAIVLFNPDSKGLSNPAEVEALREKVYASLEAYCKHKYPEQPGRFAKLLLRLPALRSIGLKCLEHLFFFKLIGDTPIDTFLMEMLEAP

For orientation: Kd means the equilibrium constant for the complex coming apart. Turning to GRIP-1 peptide (from UniProt Q15596), the Kd in data set [1] was 600 nM; in data set [2], 900 nM.
